Source: patent US20230002481A1 (Chugai, published 2023)

T1: recombinant cyno C1r2s2 His/Flag tetramer (cynomolgus monkey, limits assumed)
T1 construct: Heterotetramer of two C1r-His and two C1s-Flag chains, co-expressed in FreeStyle293-F cells; also called cyno C1r2s2s
T1 chain 1: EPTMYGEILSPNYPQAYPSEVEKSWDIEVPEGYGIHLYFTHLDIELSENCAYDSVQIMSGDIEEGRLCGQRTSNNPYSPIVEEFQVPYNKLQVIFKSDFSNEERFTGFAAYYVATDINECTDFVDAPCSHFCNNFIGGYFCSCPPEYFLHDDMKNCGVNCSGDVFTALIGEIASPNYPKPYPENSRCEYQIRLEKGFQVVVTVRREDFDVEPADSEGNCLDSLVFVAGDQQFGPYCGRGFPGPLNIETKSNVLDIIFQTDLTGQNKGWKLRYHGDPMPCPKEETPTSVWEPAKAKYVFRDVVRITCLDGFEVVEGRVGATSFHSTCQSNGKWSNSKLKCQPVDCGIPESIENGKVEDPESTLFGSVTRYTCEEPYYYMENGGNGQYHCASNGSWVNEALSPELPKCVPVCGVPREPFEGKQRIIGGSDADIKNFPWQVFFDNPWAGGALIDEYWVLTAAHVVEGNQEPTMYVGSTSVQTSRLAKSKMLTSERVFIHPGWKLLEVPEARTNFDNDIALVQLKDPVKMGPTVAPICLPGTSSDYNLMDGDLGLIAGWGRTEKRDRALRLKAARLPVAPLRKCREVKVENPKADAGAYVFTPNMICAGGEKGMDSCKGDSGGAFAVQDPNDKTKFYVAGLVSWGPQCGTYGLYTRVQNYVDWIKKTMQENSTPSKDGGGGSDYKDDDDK
T1 chain 2: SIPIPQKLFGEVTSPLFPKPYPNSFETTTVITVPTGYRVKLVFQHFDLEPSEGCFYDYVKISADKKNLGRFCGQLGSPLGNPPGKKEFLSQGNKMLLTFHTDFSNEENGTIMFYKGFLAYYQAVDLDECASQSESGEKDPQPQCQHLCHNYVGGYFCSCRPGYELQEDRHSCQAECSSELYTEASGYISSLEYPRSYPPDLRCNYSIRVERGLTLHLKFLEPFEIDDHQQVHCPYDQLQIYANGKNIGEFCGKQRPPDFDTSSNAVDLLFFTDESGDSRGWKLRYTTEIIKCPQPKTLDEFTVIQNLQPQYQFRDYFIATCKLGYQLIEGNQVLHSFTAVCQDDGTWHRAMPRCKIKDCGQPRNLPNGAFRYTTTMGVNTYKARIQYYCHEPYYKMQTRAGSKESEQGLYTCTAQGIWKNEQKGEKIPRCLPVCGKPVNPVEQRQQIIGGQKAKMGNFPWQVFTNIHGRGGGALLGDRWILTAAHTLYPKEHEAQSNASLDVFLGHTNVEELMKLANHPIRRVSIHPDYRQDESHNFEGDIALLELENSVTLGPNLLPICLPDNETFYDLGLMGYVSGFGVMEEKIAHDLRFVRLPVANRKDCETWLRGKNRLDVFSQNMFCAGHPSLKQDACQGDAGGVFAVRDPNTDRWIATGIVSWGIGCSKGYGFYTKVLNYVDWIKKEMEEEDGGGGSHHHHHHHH


Target: T1, recombinant cyno C1r2s2 His/Flag …
Experiment: SPR (Biacore), pH5.8*: dissociation at pH5.8 after association and dissociation at pH7.4, 37 C, Scrubber fit
Procedure: The kinetic parameters of anti-C1s antibodies against recombinant human C1s (as described in PCT/JP2018/042054), human C1r2s2, and cyno C1r2s2 His/Flag (also referred as cyno C1r2s2 in the Table and Figures) were assessed at pH7.4 and pH5.8, at 37 degrees C. using BIACORE (registered trademark) T200 instrument (GE Healthcare) or BIACORE 4000 (GE Healthcare). ProAG (Pierce) was immobilized onto a CM4 sensorchip using amine coupling kit (GE Healthcare) according to the recommended settings by GE Healthcare. Antibodies and analytes were diluted into the respective running buffers, ACES pH7.4 and pH5.8 (20 mM ACES, 150 mM NaCl, 1.2 mM CaCl₂, 1 mg/ml BSA, 1 mg/ml CMD, 0.05% Tween 20, 0.005 w/v % NaN₃). Each antibody was captured onto the sensor surface by ProA/G. Antibody capture levels were typically 100-200 resonance units (RU). Then, recombinant C1s was injected at concentrations of 25 and 50 nM followed by dissociation at pH7.4 and pH5.8. The surface was regenerated using 10 mM Glycine-HCl, pH1.5. Kinetic parameters at neutral pH conditions and acidic conditions were determined by fitting the sensorgrams with 1:1 binding model using BIACORE (registered trademark) T200 Evaluation software, version 2.0 (GE Healthcare) or BIACORE 4000 Evaluation software. The dissociation rate at pH5.8 (after dissociation at pH7.4, indicated as pH5.8* in TABLE 2) was determined by processing and fitting data using Scrubber 2.0 (BioLogic Software) curve fitting software. The association rate (ka), dissociation rate (kd), binding affinity (KD) at pH7.4 and pH5.8 condition, and dissociation rate (kd) at pH5.8* condition of the antibodies are listed in TABLE 2. Some kinetic parameters of COS0098pHv1 in acidic condition were not correctly calculated because of its weak binding response.
Also, to observe the cross-reactivity of anti-C1s antibodies against human C1r2s2 and cyno C1r2s2 (cyno C1r2s2 His/Flag), BIACORE (registered trademark) kinetics analysis was performed.

koff [s⁻¹] | Binder
0.000926 | COS0098bb (antibody, V domains shown, Anti-C1s rabbit antibody, parent of COS0098pHv1; the antibody was captured by ProA/G; also called anti-C1s antibody COS0098bb) VH: QSVEESGGRLVTPGTPLTLTCTVSGFSLTKYTVSWVRQAPGKGLEWIGIINTGGSAYYATWAKGRFTFSKTSTTVDLQITSPTTEDTATYFCARGNGDTDYTNLWGPGTLVTVSS VL: QVLTQTPSSVSEPVGGTVTINCQASENIYSALAWYQQKPGQPPKLLIYGASNLESGVPSRFKGSGSGTQFTLTISDLECADAATYYCQQYYFTSSTFGGGTKVEIK
0.0618 | COS0098pHv1 (antibody, V domains shown, Humanized, optimized pH-dependent variant of COS0098bb) VH: QVQLVQSGAEVKKPGSSVKVSCKASGHTFSKYTVSWIRQPPGKGLEWIGIINTGGSAYPATWAKGRVTITADESTSTAYMELSSLRSEDTAVYYCARGAGDTDYTNLWGQGTLVTVSS VL: DIQMTQSPSSLSASVGDRVTITCQASENIYSALAWYQQKPGQPPKLLIYGASQLESGVPSRFSGSGSGTDFTLTISSLQPEDFATYYCQQYYFTSHTFGQGTKVEIK
